Reference: patent US20030235557A1

These binders were tested against mouse B6 class I antigens (D^b or K^b molecules on the surface of RMA-S cells) (mouse (C57Bl/6)) (assay: RMA-S class I stabilisation, peptide 25 ug/ml, flow cytometry with FITC anti-D^b or anti-K^b).

| Binder | Binding Affinity to Mouse MHC Class I (% increase of D^b or K^b on RMA-S cells) [%] |
| --- | --- |
| YSSDNLYQM [WT1 peptide p221-229 …] | 0.8 |
| CMTWNQMNL [WT1 peptide p235-243 …] | 33.6 |
| ALLPAVPSL [WT1 peptide human p10-18 …] | 2.2 |
| QMTSQLECM [WT1 peptide p228-236 …] | 1.2 |

More lines, now with the values ahead:

| Binding Affinity to Mouse MHC Class I (% increase of D^b or K^b on RMA-S cells) [%] | Binder |
| --- | --- |
| 5.8 | NLYQMTSQL [WT1 peptide p225-233 …] |
| 52 | SCLESQPAI [WT1 peptide human p136-144 …] |
| 1.2 | GCNKRYFKL [WT1 peptide p329-337 …] |
| 1 | NQMNLGATL [WT1 peptide p239-247 …] |

These binders were tested against mouse B6 class I antigens (D^b or K^b molecules on the surface of RMA-S cells) (mouse (C57Bl/6)) (assay: binding of 9mer peptides within p117-139 to mouse B6 (H-2^b) class I, RMA-S assay as in Example 4).

| Binder | Binding Affinity to Mouse MHC Class I [%] |
| --- | --- |
| SSGQARMFP [WT1 peptide P121-129 …] | 1 |
| NAPYLPSCL [WT1 peptide P130-138 …] | 79 |
| SQASSGQAR [WT1 peptide P118-126 …] | 2 |
| MFPNAPYLP [WT1 peptide P127-135 …] | 2 |
| APYLPSCLE [WT1 peptide P131-139 …] | 1 |
| QARMFPNAP [WT1 peptide P124-132 …] | 1 |
| ASSGQARMF [WT1 peptide P120-128 …] | 1 |
| PSQASSGQA [WT1 peptide P117-125 …] | 2 |

More lines, now with the values ahead:

| Binding Affinity to Mouse MHC Class I [%] | Binder |
| --- | --- |
| 1 | ARMFPNAPY [WT1 peptide P125-133 …] |
| 2 | QASSGQARM [WT1 peptide P119-127 …] |
| 1 | FPNAPYLPS [WT1 peptide P128-136 …] |
| 1 | PNAPYLPSC [WT1 peptide P129-137 …] |
